The text below walks through data of paper PMC7251641.

The target of the experiment is Htz1^Flag (S. cerevisiae histone H2A.Z with a Flag epitope tag) (S. cerevisiae) (UniProt Q12692). Kind of experiment: co-IP.
Sequence of Htz1^Flag (S. cerevisiae histone H2A.Z with a Flag epitope tag) (S. cerevisiae) (Q12692 whole entry): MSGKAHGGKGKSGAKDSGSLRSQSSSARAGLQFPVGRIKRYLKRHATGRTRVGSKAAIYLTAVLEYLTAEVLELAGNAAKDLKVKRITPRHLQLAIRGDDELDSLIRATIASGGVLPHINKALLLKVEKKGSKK

Sequence of histone H2A (S. cerevisiae, endogenous) (P04911 whole entry): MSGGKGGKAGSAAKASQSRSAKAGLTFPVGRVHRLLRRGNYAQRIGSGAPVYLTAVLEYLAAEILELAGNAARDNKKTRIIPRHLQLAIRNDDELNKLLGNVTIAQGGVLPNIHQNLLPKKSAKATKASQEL

With “histone H2A (S. cerevisiae, endogenous) (from UniProt P04911 1-132) (natural protein)”, the estimated molar ratio of H2A and Htz1^Flag in the Flag eluate was 0.49.
